Assay [1] deals with N-terminal domain of SARS-CoV-2 nucleocapsid protein (NTD-N_(41-174)) (SARS-CoV-2) (UniProt P0DTC9). In words: ITC. A general note: Isothermal titration calorimetry measures the heat released or taken up as one component is titrated into another.
The target of assay [2] is NTD-N_(41-174) protein double mutant (WV133134AA) (SARS-CoV-2) (UniProt P0DTC9). Put plainly: ITC.
Assay [3] deals with GFP-tagged G3BP1_(NTF-2) (G3BP1_(NTF-2)-GFP) (human, UniProt Q13283 1-139). Put plainly: fluorescence intensity-based PPIs plate assay.
Assay [4] has as its target NTF2-like domain of Ras GTPase-activating protein SH3-domain-binding protein 1 (G3BP1_(NTF-2)) (human, UniProt Q13283 1-139). In words: ITC.

Values joined by “and” are separate entries in the source; they are usually repeats but may differ in a detail not shown here. Equal entries are not always repeated.

Turning to “NTF2-like domain of Ras GTPase-activating protein SH3-domain-binding protein 1 (G3BP1_(NTF-2)) (from UniProt Q13283 1-139) (domain or fragment)”, the Kd (as a rule, the constant that tells how readily two partners part at equilibrium) in assay [1] amounted to 5.5 µM. The fold higher KD than the single mutants (V134A and W133A) in assay [2] is 2 fold and 4 fold.
With KDGIIAAATEG [mutant N_(128-138) peptide 2 (KDGIIAAATEG)], the binding result in assay [3] is “binds”.
As for KDGIIWVATEG [N_(128-138) peptide 1 (KDGIIWVATEG)], in assay [4], the Kd came to 11.8 µM.
Consider KAGIIAAATEG [mutant N_(128-138) peptide 3 (KAGIIAAATEG)], for which, in assay [3], the binding result was “binds”.
